Patent publication EP2080771A2 (Maxygen Aps, dated 2009)
Numbering of substitutions follows the chain as printed. Names may count otherwise. Read-outs that look alike come from different tables or passages of the source. One block for each binder: values may come before it.

Legend:
Assay in all cases: cell-based or functional assay
[1] = biological target: T1, Interferon type I receptors on HeLa cells (UniProt P17181 28-557; P48551 27-515, limits assumed)
T1 sequence (looked up) 1: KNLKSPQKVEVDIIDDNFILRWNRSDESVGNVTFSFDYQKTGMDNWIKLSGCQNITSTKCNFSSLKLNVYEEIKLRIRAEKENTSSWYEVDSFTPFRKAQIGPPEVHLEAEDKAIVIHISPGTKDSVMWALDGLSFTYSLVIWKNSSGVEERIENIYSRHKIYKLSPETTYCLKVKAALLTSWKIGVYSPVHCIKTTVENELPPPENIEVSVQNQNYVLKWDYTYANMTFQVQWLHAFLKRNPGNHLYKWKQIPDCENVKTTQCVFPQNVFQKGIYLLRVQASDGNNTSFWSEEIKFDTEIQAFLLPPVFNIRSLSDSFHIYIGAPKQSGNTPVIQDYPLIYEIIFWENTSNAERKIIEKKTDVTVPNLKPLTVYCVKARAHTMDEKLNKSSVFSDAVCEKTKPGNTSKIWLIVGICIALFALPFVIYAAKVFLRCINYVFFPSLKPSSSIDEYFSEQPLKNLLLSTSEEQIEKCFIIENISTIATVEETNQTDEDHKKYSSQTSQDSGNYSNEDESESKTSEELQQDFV
T1 sequence (looked up) 2: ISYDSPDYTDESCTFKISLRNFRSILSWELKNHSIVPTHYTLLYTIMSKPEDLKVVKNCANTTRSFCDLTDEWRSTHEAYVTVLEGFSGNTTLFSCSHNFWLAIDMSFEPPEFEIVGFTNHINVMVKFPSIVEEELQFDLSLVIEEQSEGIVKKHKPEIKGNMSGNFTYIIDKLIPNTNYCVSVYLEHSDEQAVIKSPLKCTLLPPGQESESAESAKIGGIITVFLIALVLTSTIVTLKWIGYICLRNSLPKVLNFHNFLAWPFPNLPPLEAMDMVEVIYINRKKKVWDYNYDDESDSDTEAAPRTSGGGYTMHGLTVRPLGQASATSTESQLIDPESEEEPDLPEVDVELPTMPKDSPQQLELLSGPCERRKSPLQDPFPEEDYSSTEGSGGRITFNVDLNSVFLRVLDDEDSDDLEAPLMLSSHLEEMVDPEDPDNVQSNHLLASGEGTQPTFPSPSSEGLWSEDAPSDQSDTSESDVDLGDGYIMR

[2] = biological target: T1, Interferon type I receptors on HeLa …; remark: listed apart in the source
[3] = biological target: T1, Interferon type I receptors on HeLa …; remark: listed apart in the source

B2: [F111N+R113T]hINF-β variant (ligand)
chain: MSYNLLGFLQRSSNFQCQKLLWQLNGRLEYCLKDRMNFDIPEEIKQLQQFQKEDAALTIYEMLQNIFAIFRQDSSSTGWNETIVENLLANVYHQINHLKTVLEEKLEKEDNTTGKLMSSLHLKRYYGRILHYLKAKEYSHCAWTIVRVEILRNFYFINRLTGYLRN
modifications: introduced N-linked glycosylation site at position 111 (used only about 50%), besides the natural site at N80 (expressed in CHO K1 cells)
specific activity relative to wt hINF-β [2]: ~2 fold of wt hINF-β | INF-β activity, culture medium of transfected CHO K1 cells [3]: 58600 IU/ml

B3: [D110F, F111N, R113T]hINF-β (ligand)
chain: B2 chain with D110F
modifications: introduced N-linked glycosylation site at position 111, besides the natural site at N80 (expressed in CHO K1 cells)
INF-β activity, culture medium of transfected CHO K1 cells [3]: 50900 IU/ml

B4: [Q48W, Q49N, Q51T]hINF-β (ligand)
chain: B2 chain with Q48W, Q49N, Q51T, N111F, T113R
modifications: introduced N-linked glycosylation site at position 49, besides the natural site at N80 (expressed in CHO K1 cells)
INF-β activity, culture medium of transfected CHO K1 cells [1]: 45100 IU/ml

B5: [Q48F, Q49N, Q51T]hINF-β (ligand)
chain: B2 chain with Q48F, Q49N, Q51T, N111F, T113R
modifications: introduced N-linked glycosylation site at position 49, besides the natural site at N80 (expressed in CHO K1 cells)
INF-β activity, culture medium of transfected CHO K1 cells [1]: 53100 IU/ml

Now from value to binder:

INF-β activity, culture medium of transfected CHO K1 cells [1]: 65900 IU/ml
B1: [Q48V, Q49N, Q51T]hINF-β (ligand)
chain: B2 chain with Q48V, Q49N, Q51T, N111F, T113R
modifications: introduced N-linked glycosylation site at position 49, besides the natural site at N80 (expressed in CHO K1 cells)

INF-β activity, culture medium of transfected CHO K1 cells [3]: 15100 IU/ml
B6: [D110V, F111N, R113T]hINF-β (ligand)
chain: B2 chain with D110V
modifications: introduced N-linked glycosylation site at position 111, besides the natural site at N80 (expressed in CHO K1 cells)

INF-β activity, culture medium of transfected CHO K1 cells [1]: 135000 IU/ml
B7: [Q49N+Q51T]hINF-β variant (ligand)
chain: B2 chain with Q49N, Q51T, N111F, T113R
modifications: introduced N-linked glycosylation site at position 49 (used only about 60%), besides the natural site at N80 (expressed in CHO K1 cells)
